The Kd is a measure of binding affinity in units of concentration. The koff is a measure of how fast the partners let go of each other. One may read the kon as the rate constant with which the complex forms.

15 molecules from patent US20240360227A1 can be followed below.

Assay [1] has as its target Recombinant human his-tagged IGF R extracellular domain protein (human) (UniProt P08069). Nature of the assay: SPR, Ab captured via anti-huIgG Fc, pH 7.4. For orientation: In SPR one partner is held on a chip, and binding of the other changes the refractive index at the surface.
Assay [2] has the same target. In words: SPR, Ab captured via anti-huIgG Fc, dissociation at pH 6.

B1: VRDN-02051 (antibody, V domains shown)
VH: QVQLQESGPGLVKPSETLSLTCTVSGYSITGGYLWNWIRQPPGKGLEWIGYISYDGTNNYKPSLKDRVTISRDTSKNQFSLKLSSVTAADTAVYYCARYGRVFFDYWGQGTLVTVSS
VL: DIVMTQSPLSLPVTPGEPASISCRSSQSIVHSNGNTYLQWYLQKPGQSPQLLIYKVSNRLYGVPDRFSGSGSGTDFTLKISRVEAEDVGVYYCHQGSHVPWTFGQGTKVEIK
Consider B1, for which, in assay [1], the Kd worked out at 1.03 nM, the koff was 7.59e-05 s⁻¹ and the kon was 74000 M⁻¹ s⁻¹. In addition, in assay [2], the Kd was 1.3 nM, the koff worked out at 8.62e-05 s⁻¹ and the kon came out at 66600 M⁻¹ s⁻¹.

B2: VRDN-02058 (antibody, V domains shown)
VH: QVQLQESGPGLVKPSETLSLTCTVSGYSITGGYLWNWIRQPPGKGLEWIGYISYDGTNNYKPSLKDRVTISRDTSKNQFSLKLSSVTAADTAVYYCARYGRVFFDYWGQGTLVTVSS
VL: DIVMTQSPLSLPVTPGEPASISCRSSQSIVHSNGNTYLQWYLQKPGQSPQLLIYKVSNRLYGVPDRFSGSGSGTDFTLKISRVEAEDVGVYYCFQGSHVPWHFGQGTKVEIK
As to B2, in assay [1], the Kd was determined as 0.836 nM, the koff came to 8.5e-05 s⁻¹ and the kon was found to be 102000 M⁻¹ s⁻¹. Further, in assay [2], the Kd turned out to be 1.18 nM, the koff stood at 9.52e-05 s⁻¹ and the kon was found to be 80800 M⁻¹ s⁻¹.

B3: VRDN-02057 (antibody, V domains shown)
VH: QVQLQESGPGLVKPSETLSLTCTVSGYSITGGYLWNWIRQPPGKGLEWIGYISYDGTNNYKPSLKDRVTISRDTSKNQFSLKLSSVTAADTAVYYCARYGRVFFDYWGQGTLVTVSS
VL: DIVMTQSPLSLPVTPGEPASISCRSSQSIVHSNGNTYLQWYLQKPGQSPQLLIYKVSNRLYGVPDRFSGSGSGTDFTLKISRVEAEDVGVYYCFQGSHVPHTFGQGTKVEIK
In the case of B3, in assay [1], the dissociation constant Kd worked out at 0.72 nM, the koff was 6.9e-05 s⁻¹ and the kon stood at 95800 M⁻¹ s⁻¹. Besides, in assay [2], the Kd is 1.4 nM, the off-rate (koff) was found to be 0.000165 s⁻¹ and the kon was 118000 M⁻¹ s⁻¹.

B4: VRDN-02054 (antibody, V domains shown)
VH: QVQLQESGPGLVKPSETLSLTCTVSGYSITGGYLWNWIRQPPGKGLEWIGYISYDGTNNYKPSLKDRVTISRDTSKNQFSLKLSSVTAADTAVYYCARYGRVFFDYWGQGTLVTVSS
VL: DIVMTQSPLSLPVTPGEPASISCRSSQSIVHSNGNTYLQWYLQKPGQSPQLLIYKVSNRLYGVPDRFSGSGSGTDFTLKISRVEAEDVGVYYCFQGHHVPWTFGQGTKVEIK
In the case of B4, in assay [1], the Kd stood at 0.838 nM, the koff was 6.19e-05 s⁻¹ and the kon came to 73900 M⁻¹ s⁻¹. For the same molecule, in assay [2], the Kd amounted to 1.14 nM, the koff was determined as 8.07e-05 s⁻¹ and the on-rate (kon) amounted to 70700 M⁻¹ s⁻¹.

B5: VRDN-02052 (antibody, V domains shown)
VH: QVQLQESGPGLVKPSETLSLTCTVSGYSITGGYLWNWIRQPPGKGLEWIGYISYDGTNNYKPSLKDRVTISRDTSKNQFSLKLSSVTAADTAVYYCARYGRVFFDYWGQGTLVTVSS
VL: DIVMTQSPLSLPVTPGEPASISCRSSQSIVHSNGNTYLQWYLQKPGQSPQLLIYKVSNRLYGVPDRFSGSGSGTDFTLKISRVEAEDVGVYYCFHGSHVPWTFGQGTKVEIK
Turning to B5, in assay [1], the Kd stood at 0.564 nM, the koff came to 5.7e-05 s⁻¹ and the association rate constant (kon) is 101000 M⁻¹ s⁻¹. For the same molecule, in assay [2], the equilibrium dissociation constant (Kd) turned out to be 1.33 nM, the koff was 0.000156 s⁻¹ and the kon came out at 117000 M⁻¹ s⁻¹.

B6: VRDN-02053 (antibody, V domains shown)
VH: QVQLQESGPGLVKPSETLSLTCTVSGYSITGGYLWNWIRQPPGKGLEWIGYISYDGTNNYKPSLKDRVTISRDTSKNQFSLKLSSVTAADTAVYYCARYGRVFFDYWGQGTLVTVSS
VL: DIVMTQSPLSLPVTPGEPASISCRSSQSIVHSNGNTYLQWYLQKPGQSPQLLIYKVSNRLYGVPDRFSGSGSGTDFTLKISRVEAEDVGVYYCFQHSHVPWTFGQGTKVEIK
Take B6: in assay [1], the Kd stood at 7.18 nM, the koff was 0.00243 s⁻¹ and the kon was found to be 338000 M⁻¹ s⁻¹. In assay [2], the Kd was determined as 3.48 nM, the koff stood at 0.000193 s⁻¹ and the kon was 55600 M⁻¹ s⁻¹.

B7: VRDN-02062 (antibody, V domains shown)
VH: QVQLQESGPGLVKPSETLSLTCTVSGYSITGGYLWNWIRQPPGKGLEWIGYIHYDGTNNYKPSLKDRVTISRDTSKNQFSLKLSSVTAADTAVYYCARYGRVFFDYWGQGTLVTVSS
VL: DIVMTQSPLSLPVTPGEPASISCRSSQSIVHSNGNTYLQWYLQKPGQSPQLLIYKVSNRLYGVPDRFSGSGSGTDFTLKISRVEAEDVGVYYCFHGSHVPWTFGQGTKVEIK
For B7, in assay [1], the Kd was 0.225 nM, the koff is 2.13e-05 s⁻¹ and the kon stood at 94300 M⁻¹ s⁻¹. In addition, in assay [2], the equilibrium dissociation constant (Kd) is 0.166 nM, the koff is 2.82e-05 s⁻¹ and the kon stood at 170000 M⁻¹ s⁻¹.

B8: VRDN-02005 (antibody, V domains shown)
VH: QVQLQESGPGLVKPSETLSLTCTVSGYSIHGGYLWNWIRQPPGKGLEWIGYISYDGTNNYKPSLKDRVTISRDTSKNQFSLKLSSVTAADTAVYYCARYGRVFFDYWGQGTLVTVSS
VL: DIVMTQSPLSLPVTPGEPASISCRSSQSIVHSNGNTYLQWYLQKPGQSPQLLIYKVSNRLYGVPDRFSGSGSGTDFTLKISRVEAEDVGVYYCFQGSHVPWTFGQGTKVEIK
B8: in assay [1], the Kd was found to be 0.71 nM, the koff came to 6.09e-05 s⁻¹ and the kon was found to be 85800 M⁻¹ s⁻¹. In assay [2], the Kd is 1.16 nM, the koff came to 0.000119 s⁻¹ and the kon amounted to 102000 M⁻¹ s⁻¹.

B9: VRDN-02060 (antibody, V domains shown)
VH: QVQLQESGPGLVKPSETLSLTCTVSGYSITGGYLWNWIRQPPGKGLEWIGYISYHGTNNYKPSLKDRVTISRDTSKNQFSLKLSSVTAADTAVYYCARYGRVFFDYWGQGTLVTVSS
VL: DIVMTQSPLSLPVTPGEPASISCRSHQSIVHSNGNTYLQWYLQKPGQSPQLLIYKVSNRLYGVPDRFSGSGSGTDFTLKISRVEAEDVGVYYCFQGSHVPWTFGQGTKVEIK
On to B9, for which, in assay [1], the Kd is 0.249 nM, the koff stood at 2.77e-05 s⁻¹ and the kon worked out at 111000 M⁻¹ s⁻¹. In assay [2], the Kd was 0.394 nM, the koff was determined as 6.07e-05 s⁻¹ and the kon stood at 154000 M⁻¹ s⁻¹.

B10: VRDN-02056 (antibody, V domains shown)
VH: QVQLQESGPGLVKPSETLSLTCTVSGYSITGGYLWNWIRQPPGKGLEWIGYISYDGTNNYKPSLKDRVTISRDTSKNQFSLKLSSVTAADTAVYYCARYGRVFFDYWGQGTLVTVSS
VL: DIVMTQSPLSLPVTPGEPASISCRSSQSIVHSNGNTYLQWYLQKPGQSPQLLIYKVSNRLYGVPDRFSGSGSGTDFTLKISRVEAEDVGVYYCFQGSHVHWTFGQGTKVEIK
With B10, in assay [1], the Kd is 0.237 nM, the dissociation rate constant (koff) was determined as 1.98e-05 s⁻¹ and the kon came to 83500 M⁻¹ s⁻¹. Further, in assay [2], the equilibrium dissociation constant (Kd) was 1.13 nM, the koff came to 9.75e-05 s⁻¹ and the kon worked out at 86000 M⁻¹ s⁻¹.

B11: VRDN-02064 (antibody, V domains shown)
VH: QVQLQESGPGLVKPSETLSLTCTVSGYSITGGYLWNWIRQPPGKGLEWIGYISYDGTNNYKPSLKDRVTISRDTSKNQFSLKLSSVTAADTAVYYCARHGRVFFDYWGQGTLVTVSS
VL: DIVMTQSPLSLPVTPGEPASISCRSSQSIVHSNGNTYLQWYLQKPGQSPQLLIYKVSNRLYGVPDRFSGSGSGTDFTLKISRVEAEDVGVYYCFHGSHVPWTFGQGTKVEIK
Turning to B11, in assay [1], the Kd came out at 0.235 nM, the koff is 2.48e-05 s⁻¹ and the on-rate (kon) turned out to be 106000 M⁻¹ s⁻¹. Further, in assay [2], the Kd was 0.145 nM, the koff turned out to be 2.27e-05 s⁻¹ and the kon came out at 157000 M⁻¹ s⁻¹.

B12: VRDN-02006 (antibody, V domains shown)
VH: QVQLQESGPGLVKPSETLSLTCTVSGYSITHGYLWNWIRQPPGKGLEWIGYISYDGTNNYKPSLKDRVTISRDTSKNQFSLKLSSVTAADTAVYYCARYGRVFFDYWGQGTLVTVSS
VL: DIVMTQSPLSLPVTPGEPASISCRSSQSIVHSNGNTYLQWYLQKPGQSPQLLIYKVSNRLYGVPDRFSGSGSGTDFTLKISRVEAEDVGVYYCFQGSHVPWTFGQGTKVEIK
Consider B12, for which, in assay [1], the Kd was 1.08 nM, the koff was found to be 8.49e-05 s⁻¹ and the kon came to 78500 M⁻¹ s⁻¹. Besides, in assay [2], the Kd came to 1.1 nM, the koff came out at 0.000101 s⁻¹ and the kon stood at 92300 M⁻¹ s⁻¹.

B13: VRDN-02055 (antibody, V domains shown)
VH: QVQLQESGPGLVKPSETLSLTCTVSGYSITGGYLWNWIRQPPGKGLEWIGYISYDGTNNYKPSLKDRVTISRDTSKNQFSLKLSSVTAADTAVYYCARYGRVFFDYWGQGTLVTVSS
VL: DIVMTQSPLSLPVTPGEPASISCRSSQSIVHSNGNTYLQWYLQKPGQSPQLLIYKVSNRLYGVPDRFSGSGSGTDFTLKISRVEAEDVGVYYCFQGSHHPWTFGQGTKVEIK
As for B13, in assay [1], the Kd amounted to 0.509 nM, the off-rate (koff) is 4.92e-05 s⁻¹ and the kon came out at 96600 M⁻¹ s⁻¹. Further, in assay [2], the Kd was found to be 1.1 nM, the koff was 0.000101 s⁻¹ and the on-rate (kon) worked out at 91800 M⁻¹ s⁻¹.

B14: VRDN-02061 (antibody, V domains shown)
VH: QVQLQESGPGLVKPSETLSLTCTVSGYSITGGYLWNWIRQPPGKGLEWIGYISYDGTNNYKPSLKDRVTISRDTSKNQFSLKLSSVTAADTAVYYCARHGRVFFDYWGQGTLVTVSS
VL: DIVMTQSPLSLPVTPGEPASISCRSHQSIVHSNGNTYLQWYLQKPGQSPQLLIYKVSNRLYGVPDRFSGSGSGTDFTLKISRVEAEDVGVYYCFQGSHVPWTFGQGTKVEIK
In the case of B14, in assay [1], the Kd amounted to 0.28 nM, the koff was determined as 2.65e-05 s⁻¹ and the on-rate (kon) is 94700 M⁻¹ s⁻¹. Further, in assay [2], the Kd stood at 0.299 nM, the koff is 4.34e-05 s⁻¹ and the kon was 145000 M⁻¹ s⁻¹.

B15: VRDN-02063 (antibody, V domains shown)
VH: QVQLQESGPGLVKPSETLSLTCTVSGYSITGGYLWNWIRQPPGKGLEWIGYISYHGTNNYKPSLKDRVTISRDTSKNQFSLKLSSVTAADTAVYYCARYGRVFFDYWGQGTLVTVSS
VL: DIVMTQSPLSLPVTPGEPASISCRSSQSIVHSNGNTYLQWYLQKPGQSPQLLIYKVSNRLYGVPDRFSGSGSGTDFTLKISRVEAEDVGVYYCFHGSHVPWTFGQGTKVEIK
With B15, in assay [1], the Kd was found to be 0.19 nM, the off-rate (koff) is 2.11e-05 s⁻¹ and the kon was 111000 M⁻¹ s⁻¹. Also, in assay [2], the Kd was found to be 0.284 nM, the koff was found to be 3.97e-05 s⁻¹ and the kon is 140000 M⁻¹ s⁻¹.
